Several values for one entry are separate records, joined by “and”; a condition that tells them apart may be missing. Equal values may be shown once.

Common to all, as to format: cell-based
For one assay, the system named is R5 HIV-1 JR-FL. Kind of assay: Inhibition of replication in PBMC cultures, RT activity readout: HIV-1 JR-FL. On the procedure:
(§1) Viruses: All virus isolates were grown and titered exclusively in stimulated PBMC as described previously. […] The HIV-2 isolates used in this study have been previously described (Owen, S. M., Ellenberger, D., Rayfield, M., Wiktor, S., Michel, P., Grieco, M. H., Gao, F., Hahn, B. H., and Lai, R. B. 1998. Genetically Divergent Strains of Human Immunodeficiency Virus Type 2 Use Multiple Coreceptors for Entry. J Virol 72:5425-5432) and were obtained from the NIH AIDS Research and Reference Reagent Program.
(§2) PA14 (Lot # DF-021204) was produced for reagent use in the Research & Development laboratories of Progenics Pharmaceuticals Inc.
(§3) Inhibition of HIV-1 and HIV-2 replication in PBMC cultures: PBMC were isolated from 34 healthy blood donors with Ficoll-Hypaque (all media from Cellgro, Herndon, Va.) and depleted of CD8+ cells using RosetteSep CD8 depletion cocktail (StemCell Technologies) according to the manufacturer's instructions. Equal numbers of cells from each donor were then separately stimulated with 5 ug phytohemagglutinin/ml (Sigma, St. Louis, Mo.) or with surface-immobilized anti-CD3 antibody OKT3 in RPMI 1640 medium containing 10% fetal calf serum, 100 Units of interleukin-2/ml (NIH AIDS Research and Reference Reagent Program), glutamine, and antibiotics (PBMC culture medium) as previously described. After 72 hours, equal numbers of PBMC stimulated by one of these two methods from each donor were combined for use in infection assays as follows. […] The virus inoculum was adjusted to 400 to 2,000 times the TCID50 per ml in PBMC culture medium, and a 50-ul aliquot was added to each culture. The inhibitory doses refer to the concentrations of the agents present at this point in the culture, when virus, cells, and inhibitors were all present at their final concentrations. Reverse Transcriptase (RT) activity was measured on Day 7 post infection (pi) for HIV-1 and Day 10 pi for HIV-2 by the Reverse Transcriptase Assay, Colorimetric kit, #11 468 120 910, Roche (Switzerland) according to the manufacturer's instructions with the following exception: neither ultracentrifugation nor PEG precipitation of the culture supernatants was performed before viral lysis.
(§4) The inhibition data were analyzed using GraphPad Prism software (GraphPad Software, San Diego, Calif.). A 4-parameter logistic fit was used calculate the concentration of inhibitor that afforded a 50% and a 90% reduction in RT activity. […] The % inhibitions where best-fit curve reached a top plateau, also as calculated by GraphPad Prism software, are reported as well as maximum percent inhibition (MPI). […] Inhibition curves with a poor sigmoid fit (R^2<0.7) were excluded from data analysis.

A further assay relates to R5 HIV-1 CC 1/85. Kind of assay: Inhibition of replication in PBMC cultures, RT activity readout: HIV-1 CC 1/85. On the procedure:
as §1, §2, §3, §4

Another assay concerns R5X4 HIV-2 310342. Kind of assay: Inhibition of replication in PBMC cultures, RT activity readout: HIV-2 310342. On the procedure:
as §1, §2
Inhibition of HIV-1 and HIV-2 replication in PBMC cultures: PBMC were isolated from 34 healthy blood donors with Ficoll-Hypaque (all media from Cellgro, Herndon, Va.) and depleted of CD8+ cells using RosetteSep CD8 depletion cocktail (StemCell Technologies) according to the manufacturer's instructions. […] Reverse Transcriptase (RT) activity was measured on Day 7 post infection (pi) for HIV-1 and Day 10 pi for HIV-2 by the Reverse Transcriptase Assay, Colorimetric kit, #11 468 120 910, Roche (Switzerland) according to the manufacturer's instructions with the following exception: neither ultracentrifugation nor PEG precipitation of the culture supernatants was performed before viral lysis. […]

Where [1] appears, read: HIV-1 JR-FL, R5, median, current study n = 5.
The mark [2] stands for this setting: JR-FL, current study n = 5, mean.
[3] abbreviates: CC 1/85, current study n = 5, mean.

B1: PRO 140: humanized IgG4,κ anti-CCR5 monoclonal antibody, humanized version of murine mAb PA14 (antibody, chains of the INN, looked up, V domains shown)
VH: EVQLVESGGGLVKPGGSLRLSCAASGYTFSNYWIGWVRQAPGKGLEWIGDIYPGGNYIRNNEKFKDKTTLSADTSKNTAYLQMNSLKTEDTAVYYCGSSFGSNYVFAWFTYWGQGTLVTVSS
VL: DIVMTQSPLSLPVTPGEPASISCRSSQRLLSSYGHTYLHWYLQKPGQSPQLLIYEVSNRFSGVPDRFSGSGSGTDFTLKISRVEAEDVGVYYCSQSTHVPLTFGQGTKVEIK
On to B1, for which the “EC50 (median)” value with R5 HIV-1 JR-FL (setting [1]) is 0.09 µg/mL; with R5X4 HIV-2 310342 it was more than 100 µg/mL. For the same molecule, the “EC90 (median)” value in the assay with R5 HIV-1 JR-FL (setting [1]) is 7.0 µg/mL; in the assay with R5 HIV-1 CC 1/85 (HIV-1 CC 1/85, R5, median, current study n = 5), 6.0 µg/mL; in the assay on R5X4 HIV-2 310342, more than 100 µg/mL. In addition, the “EC50 (mean)” value in the assay on R5 HIV-1 JR-FL (setting [2]) was less than 0.97 µg/mL; with R5 HIV-1 CC 1/85 (setting [3]), less than 7.7 µg/mL. For the same molecule, the “EC90 (mean)” value with R5 HIV-1 JR-FL (setting [2]) came to 22 µg/mL; with R5 HIV-1 CC 1/85 (setting [3]), 23 µg/mL. In addition, the “MPI (maximum percent inhibition)” value is 100% and 103% and 101% and 110% in the assay on R5 HIV-1 JR-FL (R5 HIV-1 JR-FL, individual assays (Source)); 94% and 93% and 102% and 95% with R5 HIV-1 CC 1/85 (R5 HIV-1 CC 1/85, individual assays (Source)). Also, the “MPI, Median” value in the assay on R5 HIV-1 JR-FL (R5 HIV-1 JR-FL, median of assays with R^2 >= 0.7) is 102%; in the assay with R5 HIV-1 CC 1/85 (R5 HIV-1 CC 1/85, median of assays) it was 95%.

The values are drawn from US20090074766A1, “Methods of inhibiting HIV-2 infection” (priority 2007, published 2009).
